Laboratory results reported in patent EP4624486A1 (Guangdong Raynovent Biotech Co., Ltd., dated 2025).
Bridge positions count the residues as written; N and C are the ends. Square brackets hold non-standard residues; d marks the D form. Ends that are not written are not given here. αMeF = C[C@](N)(Cc1ccccc1)C(=O)O; αMeL = CC(C)C[C@](C)(N)C(=O)O; Aib = CC(C)(N)C(=O)O

How the values were obtained:
Experiment in all cases: cell-based or functional assay
GLP-1 receptor (GLP-1R) [1] = biological target: GLP-1 receptor (GLP-1R) (UniProt P43220)
Chain of GLP-1 receptor (GLP-1R) (UniProt P43220) (P43220 24-463 limits assumed): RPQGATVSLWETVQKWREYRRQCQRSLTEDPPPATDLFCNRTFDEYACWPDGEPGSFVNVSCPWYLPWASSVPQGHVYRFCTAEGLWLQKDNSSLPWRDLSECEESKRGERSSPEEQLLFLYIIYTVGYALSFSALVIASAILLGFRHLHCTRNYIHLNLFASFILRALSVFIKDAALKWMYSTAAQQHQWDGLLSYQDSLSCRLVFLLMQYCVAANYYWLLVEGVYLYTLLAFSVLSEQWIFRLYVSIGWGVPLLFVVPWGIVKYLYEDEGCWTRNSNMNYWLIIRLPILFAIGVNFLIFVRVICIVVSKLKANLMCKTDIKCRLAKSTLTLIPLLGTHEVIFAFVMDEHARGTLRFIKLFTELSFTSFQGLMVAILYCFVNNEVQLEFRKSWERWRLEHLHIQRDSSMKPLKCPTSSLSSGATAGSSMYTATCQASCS

GCG receptor (GCGR) [2] = biological target: GCG receptor (GCGR) (UniProt P47871)
Chain of GCG receptor (GCGR) (UniProt P47871) (P47871 26-477 limits assumed): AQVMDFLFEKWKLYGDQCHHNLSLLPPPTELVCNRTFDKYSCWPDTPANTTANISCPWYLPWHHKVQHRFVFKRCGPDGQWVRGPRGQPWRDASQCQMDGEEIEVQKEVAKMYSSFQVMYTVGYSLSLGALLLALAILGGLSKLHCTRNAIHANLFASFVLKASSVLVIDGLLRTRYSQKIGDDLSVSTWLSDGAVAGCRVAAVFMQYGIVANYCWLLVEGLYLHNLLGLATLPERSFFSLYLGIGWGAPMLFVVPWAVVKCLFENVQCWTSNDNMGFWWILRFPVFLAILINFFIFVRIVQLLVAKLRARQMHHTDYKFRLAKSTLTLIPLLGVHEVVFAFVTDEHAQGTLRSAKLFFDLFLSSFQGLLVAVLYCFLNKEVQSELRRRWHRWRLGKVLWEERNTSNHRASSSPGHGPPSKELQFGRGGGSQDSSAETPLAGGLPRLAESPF

GIP receptor (GIPR) [3] = biological target: GIP receptor (GIPR) (UniProt P48546)
GLP-1 receptor (GLP-1R) [4] = biological target: GLP-1 receptor (GLP-1R) (UniProt P43220 24-463, limits assumed)
GIP receptor (GIPR) [5] = biological target: T1, GIP receptor (GIPR) (UniProt P48546 22-466, limits assumed)
T1 sequence (looked up): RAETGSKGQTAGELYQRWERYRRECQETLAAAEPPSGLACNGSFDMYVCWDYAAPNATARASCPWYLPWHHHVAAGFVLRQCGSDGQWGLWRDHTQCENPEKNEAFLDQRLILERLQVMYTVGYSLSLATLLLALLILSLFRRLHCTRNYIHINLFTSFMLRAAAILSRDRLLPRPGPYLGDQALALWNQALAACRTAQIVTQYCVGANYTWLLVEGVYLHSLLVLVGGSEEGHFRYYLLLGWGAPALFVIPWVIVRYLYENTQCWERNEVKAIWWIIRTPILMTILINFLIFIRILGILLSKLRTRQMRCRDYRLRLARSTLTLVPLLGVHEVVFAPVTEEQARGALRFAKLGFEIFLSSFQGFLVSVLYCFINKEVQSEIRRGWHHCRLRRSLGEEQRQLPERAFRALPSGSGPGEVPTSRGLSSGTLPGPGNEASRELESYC

GCG receptor (GCGR) [6] = biological target: GCG receptor (GCGR) (UniProt P47871 26-477, limits assumed)
Chain of GCG receptor (GCGR) (UniProt P47871 26-477, limits assumed) (P47871 26-477 limits assumed): as the sequence (P47871 26-477 limits assumed) above

Molecule	GLP-1 EC50 (nM); cAMP, agonistic activity (GLP-1 receptor (GLP-1R) [1]) [nM]	GCG EC50 (nM); cAMP, agonistic activity (GCG receptor (GCGR) [2]) [nM]	GIP-1 EC50 (nM); cAMP, agonistic activity (GIP receptor (GIPR) [3]) [nM]	GLP-1 EC50 (nM); cAMP, agonistic activity (GLP-1 receptor (GLP-1R) [4]) [nM]	GIP-1 EC50 (nM); cAMP, agonistic activity (GIP receptor (GIPR) [5]) [nM]	GCG EC50 (nM); cAMP, agonistic activity (GCG receptor (GCGR) [6]) [nM]
Human GLP-1 (7-37) (from UniProt P01275 21-180) (ligand)	0.001	–	–	–	–	–
LY3437943 (peptide)	0.014	0.031	0.001	–	–	–
Y[Aib]QGTFTSDYSI[αMeL]KDKKAQ[Aib]AFIEYLLKGGPSSGAPPPS-NH2 (linker 14-17 via Ida, Lys, Lys, γGlu, C20 diacid; also: further groups not given here) [Example 41]	–	–	–	0.003	0.0003	0.015
Y[Aib]QGTFTSDYSI[αMeL]KDKKAQ[Aib]AFIQYLLEGGPSSGAPPPS-NH2 (bridge 14-17; not fully specified (bridges); also: stapled body (lipidated) structure only in drawing chem0245) [Example 42]	–	–	–	0.007	0.0005	0.025
Y[Aib]QGTFTSDYSI[αMeL]KDKKAQ[Aib]AFIEYLLEGGPSSGAPPPS-NH2 (bridge 14-17; not fully specified (bridges); also: stapled body (lipidated) structure only in drawing chem0251) [Example 45]	–	–	–	0.005	0.0001	0.029
Y[Aib]QGT[αMeF]TSDYSI[αMeL]KDKKAQ[Aib]AFIEYLLKGGPSSGAPPPS-NH2 (bridge 14-17; not fully specified (bridges); also: stapled body (lipidated) structure only in drawing chem0260) [Example 51]	–	–	–	0.001	0.0002	0.025
Y[Aib]QGTFTSDYSI[αMeL]KDKKAQ[Aib]AFIEYLLEGGPSSGAPPPS-NH2 (linker 14-17 via (2-2-oxoethyl)‑glycine, AEEA, Lys, γGlu, C20 diacid) [Example 52]	–	–	–	0.003	0.0001	0.025
Y[Aib]QGTFTSDYSI[αMeL]KDKKAQ[Aib]AFIEYLLKGGPSSGAPPPS-NH2 (bridge 14-17; not fully specified (bridges); also: stapled body (lipidated) structure only in drawing chem0263) [Example 54]	–	–	–	0.002	0.0004	0.02
